From patent publication US20120141476A1 (MacroGenics, published 2012)
Positions count from the first letter of the chain named. Names and notes keep the numbering of the source. Values belong to the binder of their own block, whether it stands above or below them.

How the values were obtained:
[1] = target: T1, FcγRIIB (CD32B) on Daudi cells (human, UniProt P31994 43-310); test: FACS on Daudi cells, antibody at 0.5 µg/ml
T1 construct: whole, on cells; also called this human B cell tumor line
T1 sequence (looked up): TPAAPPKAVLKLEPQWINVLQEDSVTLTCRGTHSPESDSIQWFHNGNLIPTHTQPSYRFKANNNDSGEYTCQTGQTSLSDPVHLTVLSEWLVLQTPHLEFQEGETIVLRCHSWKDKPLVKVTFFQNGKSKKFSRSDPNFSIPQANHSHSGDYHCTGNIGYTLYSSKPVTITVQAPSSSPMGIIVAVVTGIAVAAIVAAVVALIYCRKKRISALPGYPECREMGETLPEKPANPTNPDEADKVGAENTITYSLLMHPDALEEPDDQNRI
Description: (§1) Protocol for FACS analysis. Approximately 10⁶ Daudi cells were used for each antibody staining Cells were washed once with PBS. Primary antibodies (Ch2B6, Hu2B6Hc/ch2B6Lc, human IgG1 ) were diluted into 0.5, 0.1, 0.02 μg/mL in PBS/1% BSA and 100 μL of diluted antibodies was transferred to the cells. After 30 mins incubation at 4° C., cells were washed once with 1 mL PBS/1% BSA. PE conjugated F(ab′)₂ fragment of goat anti human IgG Fc specific (Jackson ImmunoReseach, Inc.) was used as secondary antibody at 1:1000 dilution. After 30 mins incubation at 4° C., cells were washed once with 1 mL PBS/1% BSA. The cells were then resuspended in 500 μL of PBS/1% BSA and subjected to be FACS analysis.
(§2) Transfections of HEK-293 cells were performed using the following combinations: hu2B6HC/hu2B6LC; hu2B6HC/hu2B6LC(N50Y); hu2B6HC/hu2B6LC(N50Y,V51A); ch2B6HC/ch2B6LC. After three days in culture the amount of human IgG expressed was quantitated by an ELISA assay, using the method described above. Binding to dimeric soluble FcγRIIb-Fc was determined by ELISA assay. […] FACS analysis was then performed to measure the binding of the mAbs to Daudi cells (Table 8).

[2] = target: T1, FcγRIIB (CD32B) on Daudi cells; test: FACS on Daudi cells, antibody at 0.02 µg/ml
Description: as §1, §2

[3] = target: T1, FcγRIIB (CD32B) on Daudi cells; test: FACS on Daudi cells, antibody at 0.1 µg/ml
Description: as §1, §2

[4] = target: T2, dimeric soluble FcγRIIa-Fc (UniProt P12318 34-217); test: ELISA, 100 ng/well soluble FcγIIA coated
T2 construct: also called soluble FcγIIA; FcγIIA
T2 sequence (looked up): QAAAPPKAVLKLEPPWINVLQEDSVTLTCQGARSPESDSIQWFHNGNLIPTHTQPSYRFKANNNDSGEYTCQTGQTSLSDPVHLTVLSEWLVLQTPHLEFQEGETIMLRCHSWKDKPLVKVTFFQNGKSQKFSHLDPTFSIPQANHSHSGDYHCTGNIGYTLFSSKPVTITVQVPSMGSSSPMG
Description: Protocal for ELISA assay: 100 ng/well of soluble FcγIIA in carbonate buffer was coated on 96-well Maxisorp plates at 4° C. overnight. A serial of two-fold dilution of conditioned medium of Ch2B6; hu2B6HC/hu2B6LC; hu2B6HC/hu2B6LC(N50Y); hu2B6HC/hu2B6LC(N50Y,V51A); and purified IV.3 starting from 25 ng/well was added to the each well. The plate was incubated at room temperature for 1 hour. The binding was detected by HRP conjugated F(ab′)2 goat anti human IgG F(ab′)2 specific secondary antibody for Ch2B6 and all hu2B6 samples and HRP conjugated F(ab′)2 goat anti mouse IgG (H+L) secondary antibody for IV.3. After incubation with the secondary antibody for approximately 45 minutes, the plate was developed using a TMB substrate. After 5 mins incubation, the reaction was stopped by 1% H₂SO₄. The OD₄₅₀ nm was ready by SOFTmax program. Between each step, the plates were washed 3 times with PBS/0.1% Tween 20. The plates were blocked by 0.5% BSA in PBS/0.1% Tween 20 for 30 mins at room temperature before adding the serial diluted antibodies.

B2: hu2B6HC/hu2B6LC(N50Y) (antibody, V domains shown)
VH: QVQLVQSGAEVKKPGASVKVSCKASGYTFTNYWIHWVRQAPGQGLEWMGVIDPSDTYPNYNKKFKGRVTMTTDTSTSTAYMELRSLRSDDTAVYYCARNGDSDYYSGMDYWGQGTTVTVSS
VL: EIVLTQSPDFQSVTPKEKVTITCRTSQSIGTNIHWYQQKPDQSPKLLIKYVSESISGVPSRFSGSGSGTDFTLTINSLEAEDAATYYCQQSNTWPFTFGGGTKVEIK
notes: Human C-Gamma1 and C-kappa constant regions; also called Hu2B6N50Y; Hu2B6 N50Y
binding result [4]: no binding

B4: hu2B6HC/hu2B6LC mAb (humanized 2B6) (antibody, V domains shown)
VH: B2 VH
VL: B2 VL with Y50N
notes: Human C-Gamma1 and C-kappa constant regions
binding result [4]: no binding

Second part, the binder after the results:

Mean Fluorescence [1]: 193
Mean Fluorescence [2]: 45.6
Mean Fluorescence [3]: 141
B1: ch2B6HC/ch2B6LC mAb (chimeric 2B6) (antibody, V domains shown)
VH: QVQLQQPVTELVRPGASVMLSCKASDYPFTNYWIHWVKQRPGQGLEWIGVIDPSDTYPNYNKKFKGKATLTVVVSSSTAYMQLSSLTSDDSAVYYCARNGDSDYYSGMDYWGQGTSVTVSS
VL: DILLTQSPAILSVSPGERVSFSCRTSQSIGTNIHWYQQRTNGFPRLLIKNVSESISGIPSRFSGSGSGTDFILSINSVESEDIADYYCQQSNTWPFTFGGGTKLEIK
notes: Tested as conditioned medium of transfected HEK-293 cells; also called ch2B6 mAb; chimeric mAb

binding result [4]: no binding
B3: hu2B6HC/hu2B6LC(N50Y,V51A) (antibody, V domains shown)
VH: B2 VH
VL: B2 VL with V51A
notes: Human C-Gamma1 and C-kappa constant regions; also called Hu2B6N50Y,V51A; Hu2B6N50Y, V51A
